Publication PMC12002259, “Monomers and short oligomers of human RAD52 promote single-strand annealing” (Proceedings of the National Academy of Sciences of the …, 2023)
Values joined by “and” are separate entries in the source; they are usually repeats but may differ in a detail not shown here. Equal values may be shown once.

Columns and labels:
RAD52 full length [1] = target: T1, RAD52 full length (human, UniProt P43351 1-418); assay: EMSA; 37 C; Hill 2.7 ± 0.2; EMSA: 25 mM Tris-acetate, 2 mM Mg(OAc)2, 1 mM DTT, pH 7.5, 10 nM ssDNA, 25 C 10 min or 37 C 5 min; mass photometry: 20 mM Tris-HCl, 50 mM NaCl, pH 7.5; conditions: protein: recombinant; tags: His-tag (pET-15b)
T1 sequence: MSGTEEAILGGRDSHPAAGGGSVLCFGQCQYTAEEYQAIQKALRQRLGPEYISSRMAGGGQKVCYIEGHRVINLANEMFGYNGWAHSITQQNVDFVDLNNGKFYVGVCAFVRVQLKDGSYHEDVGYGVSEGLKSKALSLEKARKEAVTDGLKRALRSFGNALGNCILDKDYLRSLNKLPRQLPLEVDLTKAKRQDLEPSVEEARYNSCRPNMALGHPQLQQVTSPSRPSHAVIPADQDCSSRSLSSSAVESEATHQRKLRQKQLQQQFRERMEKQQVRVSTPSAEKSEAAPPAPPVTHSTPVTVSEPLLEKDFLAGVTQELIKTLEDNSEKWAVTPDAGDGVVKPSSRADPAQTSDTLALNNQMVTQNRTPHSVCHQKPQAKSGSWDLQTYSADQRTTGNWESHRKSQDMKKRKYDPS

RAD52(209) [2] = target: T2, RAD52(209) (human, UniProt P43351 1-209); assay: EMSA; 37 C; Hill 3.1 ± 0.5; EMSA: 25 mM Tris-acetate, 2 mM Mg(OAc)2, 1 mM DTT, pH 7.5, 10 nM ssDNA, 25 C 10 min or 37 C 5 min; mass photometry: 20 mM Tris-HCl, 50 mM NaCl, pH 7.5; conditions: protein: recombinant; tags: His-tag (pET-15b); chain copies: 11
T2 sequence: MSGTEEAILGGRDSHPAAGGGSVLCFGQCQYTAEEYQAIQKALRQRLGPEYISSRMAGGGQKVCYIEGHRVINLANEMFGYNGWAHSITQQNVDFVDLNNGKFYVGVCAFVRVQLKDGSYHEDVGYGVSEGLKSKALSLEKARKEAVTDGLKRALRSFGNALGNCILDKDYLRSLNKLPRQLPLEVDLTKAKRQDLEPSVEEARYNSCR

RAD52(209) [3] = target: T2, RAD52(209); assay: EMSA; 25 C; Hill 1.5 ± 0.2; EMSA: 25 mM Tris-acetate, 2 mM Mg(OAc)2, 1 mM DTT, pH 7.5, 10 nM ssDNA, 25 C 10 min or 37 C 5 min; mass photometry: 20 mM Tris-HCl, 50 mM NaCl, pH 7.5; conditions: protein: recombinant; tags: His-tag (pET-15b); chain copies: 11
RAD52 full length [4] = target: T1, RAD52 full length; assay: EMSA; 25 C; Hill 1.4 ± 0.2; EMSA: 25 mM Tris-acetate, 2 mM Mg(OAc)2, 1 mM DTT, pH 7.5, 10 nM ssDNA, 25 C 10 min or 37 C 5 min; mass photometry: 20 mM Tris-HCl, 50 mM NaCl, pH 7.5; conditions: protein: recombinant; tags: His-tag (pET-15b)
RAD52(209) [5] = target: T2, RAD52(209); assay: mass photometry; 100 nM protein, 10 nM DNA; ring shift 40 ± 4 kDa; EMSA: 25 mM Tris-acetate, 2 mM Mg(OAc)2, 1 mM DTT, pH 7.5, 10 nM ssDNA, 25 C 10 min or 37 C 5 min; mass photometry: 20 mM Tris-HCl, 50 mM NaCl, pH 7.5; conditions: protein: recombinant; tags: His-tag (pET-15b); chain copies: 11
RAD52 full length [6] = target: T1, RAD52 full length; assay: EMSA; 25 C; Hill fixed at 1; EMSA: 25 mM Tris-acetate, 2 mM Mg(OAc)2, 1 mM DTT, pH 7.5, 10 nM ssDNA, 25 C 10 min or 37 C 5 min; mass photometry: 20 mM Tris-HCl, 50 mM NaCl, pH 7.5; conditions: protein: recombinant; tags: His-tag (pET-15b)
RAD52(209) [7] = target: T2, RAD52(209); assay: EMSA; 25 C; Hill 1.6 ± 0.3; EMSA: 25 mM Tris-acetate, 2 mM Mg(OAc)2, 1 mM DTT, pH 7.5, 10 nM ssDNA, 25 C 10 min or 37 C 5 min; mass photometry: 20 mM Tris-HCl, 50 mM NaCl, pH 7.5; conditions: protein: recombinant; tags: His-tag (pET-15b); chain copies: 11
[8] = target: the molecule itself; assay: mass photometry; single 60-s reading at 200 nM protein, label-free, adsorbed on glass; Buffer 1 (20 mM Tris-HCl, 50 mM NaCl, pH 7.5); stock diluted to 1 uM, then to the final concentration, measured directly after dilution; size of the oligomers
[9] = target: the molecule itself; assay: mass photometry; concentration series 10 to 200 nM protein, cumulative histograms from four measurements; Buffer 1 (20 mM Tris-HCl, 50 mM NaCl, pH 7.5); linear fits and a global fit of noncooperative (isodesmic) assembly coupled with preferential cyclization; Kd is that of a monomer associating with an oligomer of n subunits
RAD52(209) [10] = target: T2, RAD52(209); assay: EMSA; 37 C; Hill 4.1 ± 0.4; EMSA: 25 mM Tris-acetate, 2 mM Mg(OAc)2, 1 mM DTT, pH 7.5, 10 nM ssDNA, 25 C 10 min or 37 C 5 min; mass photometry: 20 mM Tris-HCl, 50 mM NaCl, pH 7.5; conditions: protein: recombinant; tags: His-tag (pET-15b); chain copies: 11
RAD52 full length [11] = target: T1, RAD52 full length; assay: EMSA; 37 C; Hill 3.3 ± 0.2; EMSA: 25 mM Tris-acetate, 2 mM Mg(OAc)2, 1 mM DTT, pH 7.5, 10 nM ssDNA, 25 C 10 min or 37 C 5 min; mass photometry: 20 mM Tris-HCl, 50 mM NaCl, pH 7.5; conditions: protein: recombinant; tags: His-tag (pET-15b)
RAD52(209) [12] = target: T2, RAD52(209); assay: mass photometry; 100 nM protein, 10 nM DNA; ring shift 32 ± 2 kDa; EMSA: 25 mM Tris-acetate, 2 mM Mg(OAc)2, 1 mM DTT, pH 7.5, 10 nM ssDNA, 25 C 10 min or 37 C 5 min; mass photometry: 20 mM Tris-HCl, 50 mM NaCl, pH 7.5; conditions: protein: recombinant; tags: His-tag (pET-15b); chain copies: 11

**Q.** Which Kd (RAD52 full length [1]) does the source give for GCTCTAAGCCATCCGCAAAAATGACCTCTTAT (ssDNA) [32 nt] here?
**A.** 135 ± 4 nM

**Q.** And the Kd (RAD52(209) [2])?
**A.** 246 ± 33 nM

**Q.** And the Kd (RAD52(209) [3])?
**A.** 169 ± 24 nM

**Q.** What about the Kd (RAD52 full length [4]) of the same binder?
**A.** 115 ± 22 nM

B1: 83 nt (ssDNA)
DNA: TTTATATAATTTACTTTATTTTCTATGTCTATTCATTTACTTATTGTGTATTATCCTTATACTTACTTACTTTATGTTTATTT
**Q.** Does B1 bind (RAD52(209) [5])?
**A.** binds

B2: 70 nt (ssDNA)
DNA: TTTAATAATTTACTTTATTTTCTATGTCTATTCATTTACTTATTGTGTATTATCCTTATACTTACTTAC
**Q.** Which Kd (RAD52 full length [6]) does the source give for B2 here?
**A.** 53 ± 8 nM

**Q.** And the Kd (RAD52(209) [7])?
**A.** 109 ± 23 nM

B3: full-length human RAD52 (natural protein, UniProt P43351 1-418, looked up)
chain: MSGTEEAILGGRDSHPAAGGGSVLCFGQCQYTAEEYQAIQKALRQRLGPEYISSRMAGGGQKVCYIEGHRVINLANEMFGYNGWAHSITQQNVDFVDLNNGKFYVGVCAFVRVQLKDGSYHEDVGYGVSEGLKSKALSLEKARKEAVTDGLKRALRSFGNALGNCILDKDYLRSLNKLPRQLPLEVDLTKAKRQDLEPSVEEARYNSCRPNMALGHPQLQQVTSPSRPSHAVIPADQDCSSRSLSSSAVESEATHQRKLRQKQLQQQFRERMEKQQVRVSTPSAEKSEAAPPAPPVTHSTPVTVSEPLLEKDFLAGVTQELIKTLEDNSEKWAVTPDAGDGVVKPSSRADPAQTSDTLALNNQMVTQNRTPHSVCHQKPQAKSGSWDLQTYSADQRTTGNWESHRKSQDMKKRKYDPS
notes: RAD52, human, full length; Expressed from pET-15b (plasmid a gift of W. Kagawa); No tag cleavage is described; The entry describes the protomer; the oligomer size varies with concentration; source: E. coli BL21(DE3) with pRARE, purified (Ni-NTA, size-exclusion chromatography)
**Q.** B3 was tested. Which “stoichiometry N” value [8] did it give?
**A.** 8 protomers to 12 protomers (2×) and 10

**Q.** What about the Kd [9] of the same binder?
**A.** 14 ± 2 nM

**Q.** And the “stoichiometry N” value [9]?
**A.** 10.6 protomers per ring and 7 protomers to 13 protomers (2×)

B4: RAD52(209), human RAD52 truncated after amino acid 209 (domain or fragment, UniProt P43351 1-209, looked up)
chain: MSGTEEAILGGRDSHPAAGGGSVLCFGQCQYTAEEYQAIQKALRQRLGPEYISSRMAGGGQKVCYIEGHRVINLANEMFGYNGWAHSITQQNVDFVDLNNGKFYVGVCAFVRVQLKDGSYHEDVGYGVSEGLKSKALSLEKARKEAVTDGLKRALRSFGNALGNCILDKDYLRSLNKLPRQLPLEVDLTKAKRQDLEPSVEEARYNSCR
notes: Expressed from pET-15b (plasmid a gift of S. C. West); No tag cleavage is described; The entry describes the protomer; also called C-terminally truncated RAD52; source: E. coli BL21(DE3) with pRARE, purified (Ni-NTA, size-exclusion chromatography)
**Q.** How did the “stoichiometry N” value [8] turn out when B4 was run?
**A.** 11

B5: 60 nt (ssDNA)
DNA: TCCTTTTGATAAGAGGTCATTTTTGCGGATGGCTTAGAGCTTAATTGCTTTTTTTTTTTT
**Q.** How did the Kd (RAD52(209) [10]) turn out when B5 was run?
**A.** 127 ± 10 nM

**Q.** What about the Kd (RAD52 full length [11]) of the same binder?
**A.** 112.4 ± 0.1 nM

**Q.** Does GCAATTAAGCTCTAAGCCATCCGCAAAAATGACCTCTTATCAAAAGGA (ssDNA) [48 nt unlabeled] bind (RAD52(209) [12])?
**A.** binds
